B1: GhJAZ1 after deletion of NT domain: GhJAZ1 mutant with NT domain deleted, protein sequence SEQ ID No. 83 (protein)
chain: MSSCSESTAMKPARSPEANGTPVVPPPTMNLFPLNDKSDDVCGRNGGNPKNLTSMDLFPQQAGLASKDDSPNKLEPQTAPMTIFYGGQVIVFNDFPANKAKEIMLLASNSSSQSNNSFNPIPFTSSIARSPIESSIGVPPTSKPVHPAQRAVPGDLPIARRASLHRFLEKRKDRITAKAPYQINNSAAAPSLSGDNKSWLGLAAQSP
B2: GhJAZ1: cotton JAZ1 protein, gene number Gh_A05G0260, sequence SEQ ID No. 4; prokaryotically expressed with His tag, about 30 KD (protein)
chain: MSSCSESTAMKPARSPEKPSFAQTCNLLSQYLKEKGSFGDLSLGMTCNVEANGTPVVPPPTMNLFPLNDKSDDVCGRNGGNPKNLTSMDLFPQQAGLASKDDSPNKLEPQTAPMTIFYGGQVIVFNDFPANKAKEIMLLASNSSSQSNNSFNPIPFTSSIARSPIESSIGVPPTSKPVHPAQRAVPGDLPIARRASLHRFLEKRKDRITAKAPYQINNSAAAPSLSGDNKSWLGLAAQSP
modifications: His tag
notes: prokaryotically expressed with His tag, about 30 KD

Columns and labels:
c-Myc = c-Myc (Homo sapiens, UniProt P01106); experiment: Yeast two hybrid with c-Myc; type: binding; set-up: with the full length of c-Myc and NMYC, respectively; expressed in transfected cells; host or cells: yeast Y2HGold
Sequence of c-Myc (P01106 whole entry): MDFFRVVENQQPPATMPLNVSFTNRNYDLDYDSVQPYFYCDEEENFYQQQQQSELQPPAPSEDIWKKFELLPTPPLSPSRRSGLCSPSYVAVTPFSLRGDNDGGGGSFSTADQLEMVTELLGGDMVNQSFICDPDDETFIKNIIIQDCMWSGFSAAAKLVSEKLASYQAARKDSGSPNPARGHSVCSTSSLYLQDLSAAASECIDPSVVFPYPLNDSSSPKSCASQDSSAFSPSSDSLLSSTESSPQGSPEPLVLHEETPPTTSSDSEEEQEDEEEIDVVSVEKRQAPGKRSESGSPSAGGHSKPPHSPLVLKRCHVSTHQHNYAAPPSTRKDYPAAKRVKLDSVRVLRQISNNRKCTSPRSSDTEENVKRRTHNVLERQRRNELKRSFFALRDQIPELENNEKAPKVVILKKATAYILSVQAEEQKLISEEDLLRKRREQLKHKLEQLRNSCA
Source text: […]

GhCOI1 = experiment: Yeast two hybrid with GhCOI1; type: binding, cotton; details: in the presence of JA-Ile
Sequence of GhCOI1 (as listed by the source): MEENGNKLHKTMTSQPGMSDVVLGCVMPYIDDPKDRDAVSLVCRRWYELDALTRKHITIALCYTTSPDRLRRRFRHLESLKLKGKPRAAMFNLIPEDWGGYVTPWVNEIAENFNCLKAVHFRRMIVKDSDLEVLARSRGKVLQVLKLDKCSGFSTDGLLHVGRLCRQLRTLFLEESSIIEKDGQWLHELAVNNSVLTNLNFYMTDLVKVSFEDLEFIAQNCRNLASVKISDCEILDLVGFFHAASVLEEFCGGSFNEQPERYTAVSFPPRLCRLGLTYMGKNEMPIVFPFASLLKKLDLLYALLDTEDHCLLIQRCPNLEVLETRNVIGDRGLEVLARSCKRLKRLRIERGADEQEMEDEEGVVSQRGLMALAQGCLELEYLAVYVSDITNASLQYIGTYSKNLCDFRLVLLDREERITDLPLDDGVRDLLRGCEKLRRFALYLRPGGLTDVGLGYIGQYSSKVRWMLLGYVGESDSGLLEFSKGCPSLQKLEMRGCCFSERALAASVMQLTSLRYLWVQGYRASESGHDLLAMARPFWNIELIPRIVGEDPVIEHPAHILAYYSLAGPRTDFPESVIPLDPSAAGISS
Protocol: The study on Arabidopsis had shown that the inhibition of JAZ protein on JA signaling was mainly achieved by inhibiting the transcription factor function of MYC, which had been experimentally verified by us in cotton. Based on the phylogenetic tree of Arabidopsis and cotton JAZs, we screened 6 cotton JAZs (GhJAZ1, GhJAZ7, GhJAZ9, GhJAZ10, GhJAZ11 and GhJAZ31), which were analyzed with GhMYC2, GhNINJA, GhTPL, GhHDA6, and GhCOI1 for yeast two hybrid. The amino acid sequence of GhJAZ1 was set forth in SEQ ID No. 4, and the corresponding encoding gene sequence was set forth in SEQ ID No. 39; the amino acid sequence of GhJAZ7 was set forth in SEQ ID No. 7, and the corresponding encoding gene sequence was set forth in SEQ ID No. 42; the amino acid sequence of GhJAZ9 was set forth in SEQ ID No. 2, and the corresponding encoding gene sequence was set forth in SEQ ID No. 37; the amino acid sequence of GhJAZ10 was set forth in SEQ ID No. 3, and the corresponding encoding gene sequence was set forth in SEQ ID No. 38; the amino acid sequence of GhJAZ11 was set forth in SEQ ID No. 5, and the corresponding encoding gene sequence was set forth in SEQ ID No. 40; and the amino acid sequence of GhJAZ31 was set forth in SEQ ID No. 9, and the corresponding encoding gene sequence was set forth in SEQ ID No. 44. The amino acid sequence of GhMYC2 was set forth in SEQ ID No. 71, and the corresponding encoding gene sequence was set forth in SEQ ID No. 72; the amino acid sequence of GhNINJA was set forth in SEQ ID No. 73, and the corresponding encoding gene sequence was set forth in SEQ ID No. 74; the amino acid sequence of GhTPL was set forth in SEQ ID No. 75, and the corresponding encoding gene sequence was set forth in SEQ ID No. 76; the amino acid sequence of GhHDA6 was set forth in SEQ ID No. 77, and the corresponding encoding gene sequence was set forth in SEQ ID No. 78; and the amino acid sequence of GhCOI1 was set forth in SEQ ID No. 79, and the corresponding encoding gene sequence was set forth in SEQ ID No. 80. […]

| Molecule | interaction with c-Myc (c-Myc) | interaction with GhCOI1 (GhCOI1) |
| --- | --- | --- |
| B1 | significantly weakened | significantly weakened |
| B2 | interacted | interacted |

From patent US20240279288A1, “APPLICATION OF PLANT JAZ PROTEINS AND DERIVED POLYPEPTIDES IN PREVENTION AND TREATMENT OF HUMAN AND ANIMAL TUMORS” (ANYANG INSTITUTE OF SINO-COTTON INDUSTRY INNOVATION, priority 2021, published 2024)
